Data from patent publication US10954275.
Changes are numbered by the printed parent chain. In names and notes the source's numbering stands.

B1: Protein G EHHE C2 domain (PrG-EHHE; A24E, K28H, V29H, N35E), displayed on the yeast cell surface (designed binder, not shown: large carriers)
chain: TTYKLVINGKTLKGETTTEAVDAETAEHHFKQYAEDNGVDGEWTYDDATKTFTVTE
B2: Protein G EHHD C2 domain (PrG-EHHD; A24E, K28H, V29H, N35D), displayed on the yeast cell surface (designed binder, not shown: large carriers)
chain: B1 chain with E35D
B3: Protein G ERH C2 domain (PrG-ERH; A24E, K28R, V29H), displayed on the yeast cell surface (designed binder, not shown: large carriers)
chain: B1 chain with H28R, E35N
B4: Protein G EHH C2 domain (PrG-EHH; A24E, K28H, V29H), displayed on the yeast cell surface (designed binder, not shown: large carriers)
chain: B1 chain with E35N

Columns and labels:
[1] = target: AlexaFluor 647-conjugated human IgG (Jackson Immuno Research) (human); test: flow cytometry, IgG titration on yeast-displayed PrG, pH 8.2 against pH 5.6
[2] = target: AlexaFluor 647-conjugated human IgG (Jackson Immuno Research) (human); test: flow cytometry on yeast-displayed PrG with labelled human IgG at pH 5.6 and pH 8.2 (FIG. 6)
[3] = target: AlexaFluor 647-conjugated human IgG (Jackson Immuno Research) (human); test: flow cytometry, titration of AlexaFluor 647 human IgG on yeast-displayed PrG, pH 5.6
[4] = target: AlexaFluor 647-conjugated human IgG (Jackson Immuno Research) (human); test: flow cytometry on yeast-displayed PrG, ~200 nM IgG, pH 8.2
[5] = target: AlexaFluor 647-conjugated human IgG (Jackson Immuno Research) (human); test: flow cytometry on yeast-displayed PrG, ~200 nM IgG, pH 5.6
[6] = target: AlexaFluor 647-conjugated human IgG (Jackson Immuno Research) (human); test: flow cytometry, titration of AlexaFluor 647 human IgG on yeast-displayed PrG, pH 8.2
[7] = target: AlexaFluor 647-conjugated human IgG (Jackson Immuno Research) (human); test: flow cytometry on yeast-displayed PrG with labelled human IgG (FIG. 6), against WT PrG

Row | Binder | fold change in binding constant, pH 5.6 to pH 8.2 [1] | fold increase of the pH dependent switch [2] | Kd [3] | Percent IgG bound at IgG concentration of ~200 nM [4] | Percent IgG bound at IgG concentration of ~200 nM [5] | Kd [6] | fold increase of IgG binding affinity [7]
1 | B1 | 40 fold | > 2 fold | 27 nM | 10% | 80% | 1170 nM | –
2 | B2 | 20 fold | – | 96 nM | 7% | 65% | 1780 nM | –
3 | B3 | – | – | – | – | – | – | > 4 fold
4 | B4 | – | – | – | – | – | – | > 4 fold
